Data: article PMC12216326

What was measured:
[1] = biological target: GST-DDX39B (residues 1-428) (human) (UniProt Q13838)
[2] = biological target: GST-DDX39B (residues 1-428) (human) (UniProt Q13838); remark: listed apart in the source

UniProt Q13838, sequence (Q13838 whole entry, the tested form may be a part): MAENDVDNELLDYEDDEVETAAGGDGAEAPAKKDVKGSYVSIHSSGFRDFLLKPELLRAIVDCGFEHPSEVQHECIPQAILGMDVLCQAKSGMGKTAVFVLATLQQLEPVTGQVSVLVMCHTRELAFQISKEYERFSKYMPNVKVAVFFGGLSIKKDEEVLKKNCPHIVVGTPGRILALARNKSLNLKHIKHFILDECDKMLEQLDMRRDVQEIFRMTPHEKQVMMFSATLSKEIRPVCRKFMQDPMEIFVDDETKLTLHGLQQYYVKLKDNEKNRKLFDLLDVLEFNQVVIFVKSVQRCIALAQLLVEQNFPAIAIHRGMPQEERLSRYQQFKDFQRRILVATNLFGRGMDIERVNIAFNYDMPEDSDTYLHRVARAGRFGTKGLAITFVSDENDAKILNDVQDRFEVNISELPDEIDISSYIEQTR

ATPase activity of DDX39B (NADH enzyme-coupled assay with poly(A) RNA), stimulation by TREX-2.1 [1] | ATPase activity of DDX39B, stimulation by TREX-2.1-mut against wild-type TREX-2.1 (fold reduction) [2] | Substance
80 fold | – | TREX-2.1 complex (LENG8 residues 490-800/PCID2/DSS1) (from UniProt Q96PV6-2 490-800; Q5JVF3 1-399; P60896 1-70)
– | 4 | TREX-2.1-mut (LENG8 residues 490-800 with 563RLTCAP568 replaced by GGGG/PCID2/DSS1) (from UniProt Q96PV6-2 490-800; Q5JVF3 1-399; P60896 1-70) (complex)
